# Reference: publication PMC10570038, “Cell-type specific regulator RBPMS switches alternative splicing via higher-order oligomerization and heterotypic interactions with other splicing regulators” (Nucleic Acids Research, 2023)
# B1: recombinant untagged full-length rat RBPMS-A (natural protein)
# chain: not shown
# notes: RBPMS isoform A (RBPMS-A), rat, cDNA NCBI XM_006253240.2; Exists as a mixture of dimers and higher-order oligomers; From pET15b-TEV-RBPMS-A; also called FL RBPMS; RBPMS-A FL; source: E. coli BL21(DE3), purified (HisTrap, TEV cleavage, Mono Q, Superdex 200); not shown: His6, N-terminal, cleaved
# Tests used:
# [1] = target: the molecule itself; test: AUC; sedimentation velocity, 40 000 rpm, 20°C, 20 mM HEPES, 1 mM TCEP, pH 7.9, 500 mM KCl; FL and ΔC20 at equal molar concentration (0.46 and 0.57 mg/ml); continuous c(s) model
# [2] = target: the molecule itself; test: SEC; size exclusion chromatography of purified untagged recombinant protein; compared with size markers (443 kDa marker, void volume)
protein,measurement,setting,value
B1,stoichiometry N,[1],~21
same,stoichiometry N,[2],2
